Measured values reported in publication PMC4990751 (Molecules and Cells, 2016).

Target: the molecule itself
Assay: SEC

B1: T105C-PaAhpC (enzyme, Pseudomonas aeruginosa PAO1, UniProt Q9I6Z3 1-187, looked up)
chain: MSLINTQVQPFKVNAFHNGKFIEVTEESLKGKWSVLIFMPAAFTFNCPTEIEDAANNYGEFQKAGAEVYIVTTDTHFSHKVWHETSPAVGKAQFPLIGDPTHQLCNAFGVHIPEEGLALRGTFVINPEGVIKTVEIHSNEIARDVGETVRKLKAAQYTAAHPGEVCPAKWKEGEKTLAPSLDLVGKI
- stoichiometry N: 10
